Patent publication US20240067747A1 (SHANGHAI HUAOTA BIOPHARMACEUTICAL, published 2024)

Target: T1, human CD73 on the cell surface of CHOK1-huCD73-3F4 cells (Huabo Biopharm) (human, UniProt P21589 27-549)
T1 construct: whole, on cells; also called cells expressing human CD73; CD73 on cell membrane
T1 sequence (looked up): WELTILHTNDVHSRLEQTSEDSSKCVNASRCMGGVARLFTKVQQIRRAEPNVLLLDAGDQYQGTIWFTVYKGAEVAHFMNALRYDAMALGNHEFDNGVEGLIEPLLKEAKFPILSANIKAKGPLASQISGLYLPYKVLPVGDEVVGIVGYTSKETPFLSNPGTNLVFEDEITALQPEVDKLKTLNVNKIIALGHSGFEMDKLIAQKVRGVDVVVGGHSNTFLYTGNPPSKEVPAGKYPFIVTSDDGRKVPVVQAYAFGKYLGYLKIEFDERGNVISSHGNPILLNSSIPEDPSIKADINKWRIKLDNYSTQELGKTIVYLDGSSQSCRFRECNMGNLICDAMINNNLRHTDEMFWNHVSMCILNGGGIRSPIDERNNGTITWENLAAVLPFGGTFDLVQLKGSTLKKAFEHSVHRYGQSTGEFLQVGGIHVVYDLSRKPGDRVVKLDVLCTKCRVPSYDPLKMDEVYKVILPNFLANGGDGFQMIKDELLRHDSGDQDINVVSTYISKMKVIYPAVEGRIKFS
Assay: flow cytometry on CHOK1-huCD73-3F4 cells, PE-goat anti-human-Fc
Method: All antigen-binding proteins were diluted to 30 μg/ml with 1% BSA in PBS solution (1% BSA/PBS) and then 3-fold diluted for 11 gradients. The diluted antigen-binding proteins were added to a 96-well U-shaped plate at 20 μL per well; and a negative control (with 1% BSA/PBS added only) was set up at the same time. The suspension of cells (CHOK1-huCD73-3F4, Huabo Biopharm) expressing human CD73 during the logarithmic growth phase were centrifuged (1000 rpm×5 min) to discard the culture medium; and the cells were resuspended with 1% BSA/PBS until the density of viable cells was 1×10⁶/mL, and were added, at 20 μL (2×10⁴ cells) per well, to the 96-well U-shaped plate with the […] antigen-binding protein to react for 30 min at room temperature. After reaction, the 96-well U-shaped plate was resuspended with 1% BSA/PBS, centrifuged (300 g×3 min) to discard the supernatant, and washed once in such a way. PE-goat anti-human-Fc (Jackson ImmunoResearch, #109-115098) diluted at 1:200 was added to react for 15 min in the dark at room temperature. After reaction, the 96-well U-shaped plate was resuspended with 1% BSA/PBS, centrifuged (300 g×3 min) to discard the supernatant, washed three times in such a way, and finally resuspended with 100 μL of 1% BSA/PBS for each wall; and the fluorescence intensity of a PE channel was detected with a flow cytometer (BD, #Cantoll).

B1: 900567 (human-mouse chimeric anti-CD73 antigen-binding protein expressed from 124A9 variable regions) (antibody, V domains shown)
VH: QVQLQQPGAELVKPGASVKLSCKASGYTFTSYWIHWVKQRPGQGLDWIGMIHPNSGSTYYNEKFKSKATLTVDKSSSTAYMQLSSLTSEDSAVYYCARYYGSDYEWYFDVWGTGTTVTVSS
VL: DIVMTQSQKFMSTSVGDRVSITCKASQNVRTAVVWYQQNPGQSPKALIYLASNRHTGVPDRFTGSGSGTDFTLTISNVHSEDLADYFCLQHWNYPYTFGGGTKLEIK
B1 showed an EC50 of 0.021 µg/mL.
